Source: article PMC9482650, “Quantitative fragmentomics allow affinity mapping of interactomes” (Nature Communications, 2022)

T1: DVL3, Q92997
T1 sequence (Q92997 244-331, limits assumed, looked up): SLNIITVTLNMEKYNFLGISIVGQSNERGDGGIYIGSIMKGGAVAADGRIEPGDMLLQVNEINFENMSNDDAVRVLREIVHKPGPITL

T2: CARD11, Q9BXL7
T2 sequence (Q9BXL7 662-765, limits assumed, looked up): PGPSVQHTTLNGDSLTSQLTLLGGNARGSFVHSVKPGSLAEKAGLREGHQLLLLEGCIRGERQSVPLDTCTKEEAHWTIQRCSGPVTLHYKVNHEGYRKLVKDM

T3: PCLO, Q9Y6V0
T3 sequence (Q9Y6V0 4491-4600, limits assumed, looked up): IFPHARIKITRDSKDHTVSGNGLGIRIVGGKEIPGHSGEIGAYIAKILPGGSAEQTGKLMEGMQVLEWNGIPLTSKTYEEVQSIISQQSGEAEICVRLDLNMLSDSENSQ

T4: GRIP1_2, Q9Y3R0
T4 sequence (Q9Y3R0 145-248, limits assumed, looked up): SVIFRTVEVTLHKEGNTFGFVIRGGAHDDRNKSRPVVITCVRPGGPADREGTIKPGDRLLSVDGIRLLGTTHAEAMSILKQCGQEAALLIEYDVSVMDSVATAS

T5: SNTA1, Q13424
T5 sequence (Q13424 82-180, limits assumed, looked up): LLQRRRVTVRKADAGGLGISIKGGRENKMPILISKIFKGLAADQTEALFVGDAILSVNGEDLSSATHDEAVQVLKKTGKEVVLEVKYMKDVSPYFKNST

T6: MPP6, Q9NZW5
T6 sequence (Q9NZW5 125-219, limits assumed, looked up): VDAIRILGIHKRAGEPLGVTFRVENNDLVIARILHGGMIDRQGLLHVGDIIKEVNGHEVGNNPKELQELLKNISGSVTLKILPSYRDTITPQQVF

T7: TIAM2, Q8IVF5
T7 sequence (Q8IVF5 885-986, limits assumed, looked up): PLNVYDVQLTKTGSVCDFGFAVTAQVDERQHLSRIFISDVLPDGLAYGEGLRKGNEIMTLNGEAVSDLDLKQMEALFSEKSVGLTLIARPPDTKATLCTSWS

T8: TJP3_3, O95049
T8 sequence (O95049 375-456, limits assumed, looked up): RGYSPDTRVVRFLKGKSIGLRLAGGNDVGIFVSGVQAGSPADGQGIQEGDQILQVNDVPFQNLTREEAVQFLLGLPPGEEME

T9: FRMPD1, Q5SYB0
T9 sequence (Q5SYB0 52-145, limits assumed, looked up): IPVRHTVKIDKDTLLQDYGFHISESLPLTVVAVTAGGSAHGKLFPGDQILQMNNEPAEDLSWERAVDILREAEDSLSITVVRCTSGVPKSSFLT

T10: ARHGEF11, O15085
T10 sequence (O15085 42-136, limits assumed, looked up): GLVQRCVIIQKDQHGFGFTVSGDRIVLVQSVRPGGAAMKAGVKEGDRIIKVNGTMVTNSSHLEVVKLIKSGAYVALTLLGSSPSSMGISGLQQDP

T11: NHERF3_1, Q5T2W1
T11 sequence (Q5T2W1 4-100, limits assumed, looked up): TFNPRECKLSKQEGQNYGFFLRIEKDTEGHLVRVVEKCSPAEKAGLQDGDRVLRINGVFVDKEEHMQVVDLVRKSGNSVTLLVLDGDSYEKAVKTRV

T12: APBA2_1, Q99767
T12 sequence (Q99767 563-664, limits assumed, looked up): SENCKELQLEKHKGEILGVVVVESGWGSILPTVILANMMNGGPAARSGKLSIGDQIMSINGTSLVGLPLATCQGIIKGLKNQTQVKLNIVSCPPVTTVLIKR

T13: APBA3_1, O96018
T13 sequence (O96018 389-490, limits assumed, looked up): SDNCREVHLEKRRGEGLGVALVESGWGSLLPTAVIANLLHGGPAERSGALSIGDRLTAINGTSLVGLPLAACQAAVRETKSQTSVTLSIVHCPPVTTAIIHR

B1: IGF1R, P08069 (peptide)
chain: ALPLPQSSTC
B2: GNG4, P50150 (peptide)
chain: REKKFFCTIL

Biological target: NHERF4_2, Q86UT5
Assay: holdup assay
Parameters: key: below the threshold = too weak to quantify, mostly under pKd 3.1 to 4
Settings: plain residues with an end cap or a label only (N-terminal biotin on a linker: ado-ado)

NHERF4_2, Q86UT5, sequence (Q86UT5 220-308): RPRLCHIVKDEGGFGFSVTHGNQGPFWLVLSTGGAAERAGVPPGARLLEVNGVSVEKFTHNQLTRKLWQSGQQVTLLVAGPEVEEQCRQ

Row | Binder | pKd
1 | B1 | below the threshold
2 | B2 | below the threshold

Biological target: GRIP2_3, Q9C0E4
Assay: holdup assay
Parameters: key: below the threshold = too weak to quantify, mostly under pKd 3.1 to 4
Settings: plain residues with an end cap or a label only (N-terminal biotin on a linker: ado-ado)

GRIP2_3, Q9C0E4, sequence (Q9C0E4 238-339): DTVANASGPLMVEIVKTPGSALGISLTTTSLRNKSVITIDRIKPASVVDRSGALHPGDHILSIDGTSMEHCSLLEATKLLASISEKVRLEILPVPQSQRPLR

Row | Binder | pKd
3 | B1 | below the threshold
4 | B2 | below the threshold

Biological target: T1, DVL3, Q92997
Assay: holdup assay
Parameters: key: below the threshold = too weak to quantify, mostly under pKd 3.1 to 4
Settings: plain residues with an end cap or a label only (N-terminal biotin on a linker: ado-ado)

Row | Binder | pKd
5 | B1 | below the threshold
6 | B2 | 4.33

Biological target: GRIP2_6, Q9C0E4
Assay: holdup assay
Parameters: key: below the threshold = too weak to quantify, mostly under pKd 3.1 to 4
Settings: plain residues with an end cap or a label only (N-terminal biotin on a linker: ado-ado)

GRIP2_6, Q9C0E4, sequence (Q9C0E4 648-740): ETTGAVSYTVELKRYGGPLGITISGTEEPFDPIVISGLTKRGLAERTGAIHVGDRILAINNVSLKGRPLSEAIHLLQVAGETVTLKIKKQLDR

Row | Binder | pKd
7 | B1 | below the threshold
8 | B2 | 4.57

Biological target: T2, CARD11, Q9BXL7
Assay: holdup assay
Parameters: key: below the threshold = too weak to quantify, mostly under pKd 3.1 to 4
Settings: plain residues with an end cap or a label only (N-terminal biotin on a linker: ado-ado)

Row | Binder | pKd
9 | B1 | below the threshold
10 | B2 | 3.54

Biological target: CASK, O14936
Assay: holdup assay
Parameters: key: below the threshold = too weak to quantify, mostly under pKd 3.1 to 4
Settings: plain residues with an end cap or a label only (N-terminal biotin on a linker: ado-ado)

CASK, O14936, sequence (O14936 487-570): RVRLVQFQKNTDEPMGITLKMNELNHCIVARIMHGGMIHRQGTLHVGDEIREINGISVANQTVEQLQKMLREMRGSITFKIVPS

Row | Binder | pKd
11 | B1 | below the threshold
12 | B2 | below the threshold

Biological target: DLG5_1, Q8TDM6
Assay: holdup assay
Parameters: key: below the threshold = too weak to quantify, mostly under pKd 3.1 to 4
Settings: plain residues with an end cap or a label only (N-terminal biotin on a linker: ado-ado)

DLG5_1, Q8TDM6, sequence (Q8TDM6 617-713): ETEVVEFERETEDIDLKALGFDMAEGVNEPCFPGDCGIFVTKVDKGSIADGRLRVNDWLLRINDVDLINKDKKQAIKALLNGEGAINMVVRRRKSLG

Row | Binder | pKd
13 | B1 | below the threshold
14 | B2 | below the threshold

Biological target: T3, PCLO, Q9Y6V0
Assay: holdup assay
Parameters: key: below the threshold = too weak to quantify, mostly under pKd 3.1 to 4
Settings: plain residues with an end cap or a label only (N-terminal biotin on a linker: ado-ado)

Row | Binder | pKd
15 | B1 | below the threshold
16 | B2 | below the threshold

Biological target: T4, GRIP1_2, Q9Y3R0
Assay: holdup assay
Parameters: key: below the threshold = too weak to quantify, mostly under pKd 3.1 to 4
Settings: plain residues with an end cap or a label only (N-terminal biotin on a linker: ado-ado)

Row | Binder | pKd
17 | B1 | below the threshold
18 | B2 | 4.1

Biological target: T5, SNTA1, Q13424
Assay: holdup assay
Parameters: key: below the threshold = too weak to quantify, mostly under pKd 3.1 to 4
Settings: plain residues with an end cap or a label only (N-terminal biotin on a linker: ado-ado)

Row | Binder | pKd
19 | B1 | below the threshold
20 | B2 | 4.35

Biological target: T6, MPP6, Q9NZW5
Assay: holdup assay
Parameters: key: below the threshold = too weak to quantify, mostly under pKd 3.1 to 4
Settings: plain residues with an end cap or a label only (N-terminal biotin on a linker: ado-ado)

Row | Binder | pKd
21 | B1 | below the threshold
22 | B2 | below the threshold

Biological target: IL16_1, Q14005
Assay: holdup assay
Parameters: key: below the threshold = too weak to quantify, mostly under pKd 3.1 to 4
Settings: plain residues with an end cap or a label only (N-terminal biotin on a linker: ado-ado)

IL16_1, Q14005, sequence (Q14005 210-306): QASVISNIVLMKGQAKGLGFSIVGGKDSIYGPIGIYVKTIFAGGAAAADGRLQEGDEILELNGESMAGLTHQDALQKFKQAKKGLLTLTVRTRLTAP

Row | Binder | pKd
23 | B1 | below the threshold
24 | B2 | 3.67

Biological target: MAGI2_6, Q86UL8
Assay: holdup assay
Parameters: key: below the threshold = too weak to quantify, mostly under pKd 3.1 to 4
Settings: plain residues with an end cap or a label only (N-terminal biotin on a linker: ado-ado)

MAGI2_6, Q86UL8, sequence (Q86UL8 1141-1229): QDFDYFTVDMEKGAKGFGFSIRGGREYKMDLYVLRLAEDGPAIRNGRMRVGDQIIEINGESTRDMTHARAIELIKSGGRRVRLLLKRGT

Row | Binder | pKd
25 | B1 | below the threshold
26 | B2 | 4

Biological target: T7, TIAM2, Q8IVF5
Assay: holdup assay
Parameters: key: below the threshold = too weak to quantify, mostly under pKd 3.1 to 4
Settings: plain residues with an end cap or a label only (N-terminal biotin on a linker: ado-ado)

Row | Binder | pKd
27 | B1 | below the threshold
28 | B2 | 3.98

Biological target: ARHGEF12, Q9NZN5-2
Assay: holdup assay
Parameters: key: below the threshold = too weak to quantify, mostly under pKd 3.1 to 4
Settings: plain residues with an end cap or a label only (N-terminal biotin on a linker: ado-ado)

ARHGEF12, Q9NZN5-2, sequence (Q9NZN5 other isoform, or with tags, fused parts or gaps): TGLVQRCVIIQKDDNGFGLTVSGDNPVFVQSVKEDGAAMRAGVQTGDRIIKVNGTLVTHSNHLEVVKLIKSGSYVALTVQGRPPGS

Row | Binder | pKd
29 | B1 | 4.95
30 | B2 | 5.87

Biological target: NOS1, P29475
Assay: holdup assay
Parameters: key: below the threshold = too weak to quantify, mostly under pKd 3.1 to 4
Settings: plain residues with an end cap or a label only (N-terminal biotin on a linker: ado-ado)

NOS1, P29475, sequence (P29475 9-101): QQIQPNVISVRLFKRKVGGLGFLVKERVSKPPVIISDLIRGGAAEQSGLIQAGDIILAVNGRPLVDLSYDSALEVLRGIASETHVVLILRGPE

Row | Binder | pKd
31 | B1 | below the threshold
32 | B2 | 3.81

Biological target: T8, TJP3_3, O95049
Assay: holdup assay
Parameters: key: below the threshold = too weak to quantify, mostly under pKd 3.1 to 4
Settings: plain residues with an end cap or a label only (N-terminal biotin on a linker: ado-ado)

Row | Binder | pKd
33 | B1 | below the threshold
34 | B2 | below the threshold

Biological target: HTRA2, O43464
Assay: holdup assay
Parameters: key: below the threshold = too weak to quantify, mostly under pKd 3.1 to 4
Settings: plain residues with an end cap or a label only (N-terminal biotin on a linker: ado-ado)

HTRA2, O43464, sequence (O43464 355-458): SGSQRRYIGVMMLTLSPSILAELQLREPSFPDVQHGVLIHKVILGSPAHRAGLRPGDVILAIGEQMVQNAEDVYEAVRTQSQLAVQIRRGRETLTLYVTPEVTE

Row | Binder | pKd
35 | B1 | below the threshold
36 | B2 | 4.49

Biological target: Inadl_6, Q8NI35
Assay: holdup assay
Parameters: key: below the threshold = too weak to quantify, mostly under pKd 3.1 to 4
Settings: plain residues with an end cap or a label only (N-terminal biotin on a linker: ado-ado)

Inadl_6, Q8NI35, sequence (Q8NI35 1058-1167): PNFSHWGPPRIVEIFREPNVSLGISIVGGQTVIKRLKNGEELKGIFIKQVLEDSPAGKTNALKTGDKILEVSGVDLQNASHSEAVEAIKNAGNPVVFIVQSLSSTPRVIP

Row | Binder | pKd
37 | B1 | below the threshold
38 | B2 | 4.22

Biological target: T9, FRMPD1, Q5SYB0
Assay: holdup assay
Parameters: key: below the threshold = too weak to quantify, mostly under pKd 3.1 to 4
Settings: plain residues with an end cap or a label only (N-terminal biotin on a linker: ado-ado)

Row | Binder | pKd
39 | B1 | below the threshold
40 | B2 | below the threshold

Biological target: T10, ARHGEF11, O15085
Assay: holdup assay
Parameters: key: below the threshold = too weak to quantify, mostly under pKd 3.1 to 4
Settings: plain residues with an end cap or a label only (N-terminal biotin on a linker: ado-ado)

Row | Binder | pKd
41 | B1 | 4.13
42 | B2 | 5.34

Biological target: T11, NHERF3_1, Q5T2W1
Assay: holdup assay
Parameters: key: below the threshold = too weak to quantify, mostly under pKd 3.1 to 4
Settings: plain residues with an end cap or a label only (N-terminal biotin on a linker: ado-ado)

Row | Binder | pKd
43 | B1 | below the threshold
44 | B2 | 5.43

Biological target: PICK1, Q9NRD5
Assay: holdup assay
Parameters: key: below the threshold = too weak to quantify, mostly under pKd 3.1 to 4
Settings: plain residues with an end cap or a label only (N-terminal biotin on a linker: ado-ado)

PICK1, Q9NRD5, sequence (Q9NRD5 17-115): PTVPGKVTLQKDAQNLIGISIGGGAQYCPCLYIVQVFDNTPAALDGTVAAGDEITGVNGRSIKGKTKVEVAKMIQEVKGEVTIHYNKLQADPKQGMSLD

Row | Binder | pKd
45 | B1 | below the threshold
46 | B2 | below the threshold

Biological target: T12, APBA2_1, Q99767
Assay: holdup assay
Parameters: key: below the threshold = too weak to quantify, mostly under pKd 3.1 to 4
Settings: plain residues with an end cap or a label only (N-terminal biotin on a linker: ado-ado)

Row | Binder | pKd
47 | B1 | below the threshold
48 | B2 | below the threshold

Biological target: T13, APBA3_1, O96018
Assay: holdup assay
Parameters: key: below the threshold = too weak to quantify, mostly under pKd 3.1 to 4
Settings: plain residues with an end cap or a label only (N-terminal biotin on a linker: ado-ado)

Row | Binder | pKd
49 | B1 | below the threshold
50 | B2 | below the threshold
